Measurements reported in paper PMC9118981.

Columns and labels:
purified protein [1] = substrate: O=c1[nH]c(=O)[nH]c(=O)[nH]1; experiment: purified protein; type: biochemical, Pseudolabrys sp. Root1462; conditions: 50.0 °C
purified protein [2] = substrate: O=c1[nH]c(=O)[nH]c(=O)[nH]1; experiment: purified protein; type: biochemical, Bradyrhizobium diazoefficiens; conditions: 50.0 °C

B1: CAH-PR (Pseudolabrys sp. Root1462) (protein)
chain: MPIAKVHRISASSPNDVSGLEAAIASGRIDPKGVIAVLGKTEGNGLVNDFSRGLATTALTLLFERHLPQAEAAQICLVMSGGTEGGMAPHWIVFERGKGEGGRSPALAIGRAHTLQLPYEQLGRLGEVDQVAAGVRAAMEDAGIADPADVHFVQIKCPLLTAQRIAEAEARGAAVATRDTLKSMSLSRAASALGAAVALGEIDRAAITEAQIGSDWSLWSGRASTSAGIELVNHEIVVLGMSKDWSGPLAIDHAVMRDGIDIEPVRAALQRLGLGAAGQLDPAQRNKMVALLAKAEASHDGRLRGHRHTMLDDSDIASTRHARGFVCGALAGLVGHAEIYVSGGAEHQGPDGGGPVAVIVDRG
notes: codon-optimised gene expressed in Bacillus subtilis, purified; no tag mentioned
B1 gave a Km (purified protein [1]) of 115 ± 36 µM and a kcat (purified protein [1]) of 10.1 ± 2.7 s⁻¹.

B2: CAH-BD (Bradyrhizobium diazoefficiens USDA 110) (protein)
chain: MRTTSVGVFKIVTKGPGDVSGLMAMIGSGAIDPKSILAVLGKTEGNGGVNDFTREYAVAALCTALAPQLGLSPEEVEQRIAFVMSGGTEGVLSPHITVFTRREVERRPAGLSGKRLSIGMAHTRDFLPEELGRAAQIAETAAAVKAAMADAGIADPADVHFVQIKCPLLTSDRVEAASARGNKTATTSAYGSMAYSRGASALGVAVALGETGSDISDGDVLRRYDLFSKVASTSAGIELMHNVVIVLGNSAASASEFEIGHAVMNDAIDAAAVTSALKCVGLGVAPQAEAGRELVNIFAKAEASPDGSVRGFRHTMLEDTDISSTRHARAAVGGLIAGLAGTGAVYVSGGAEHQGPAGGGPVAVIARLSD
notes: as for B1
Work on B2 yielded a Km (purified protein [2]) of 103 ± 29 µM and a kcat (purified protein [2]) of 10.6 ± 1.9 s⁻¹.
